Legend:
[1] = biological target: T. cruzi S-adenosylmethionine decarboxylase (AdoMetDC), His6-tagged (Trypanosoma cruzi)
[2] = biological target: T. cruzi S-adenosylmethionine decarboxylase (AdoMetDC), His6-tagged (Trypanosoma cruzi); remark: listed apart in the source
[3] = biological target: T. brucei S-adenosylmethionine decarboxylase (AdoMetDC), His6-tagged (Trypanosoma brucei)
[4] = biological target: T1, TcAdoMetDC (T. cruzi AdoMetDC homodimer) (Trypanosoma cruzi, UniProt O76240); test: activation of AdoMet decarboxylation, […]CO2 trapping; type: biochemical; settings: 5 mM putrescine; allosteric activator; pH 8.0, 37 °C
T1 sequence (O76240 1-85): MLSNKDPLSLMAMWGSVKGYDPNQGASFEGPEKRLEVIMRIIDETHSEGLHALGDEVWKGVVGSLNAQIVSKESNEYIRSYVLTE
T1 sequence (O76240 86-370): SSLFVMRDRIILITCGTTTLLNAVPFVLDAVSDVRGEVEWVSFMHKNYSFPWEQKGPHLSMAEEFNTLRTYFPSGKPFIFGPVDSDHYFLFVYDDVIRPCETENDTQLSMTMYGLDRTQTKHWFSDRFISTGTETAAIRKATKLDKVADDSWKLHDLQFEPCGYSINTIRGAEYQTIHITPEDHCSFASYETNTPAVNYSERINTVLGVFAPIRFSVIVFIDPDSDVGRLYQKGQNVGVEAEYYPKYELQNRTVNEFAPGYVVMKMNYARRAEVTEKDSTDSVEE

T. brucei prozyme, His6-tagged (natural protein)
increase of T. cruzi AdoMetDC activity by T. brucei prozyme, no putrescine [1]: 70 fold

T. cruzi prozyme, untagged (natural protein)
kcat/Km of AdoMet decarboxylation, co-purified heterodimer, 5 mM putrescine [2]: 5100 M⁻¹ s⁻¹ | kcat/Km of AdoMet decarboxylation, co-purified heterodimer, no putrescine [2]: 1030 M⁻¹ s⁻¹

T. cruzi prozyme, His6-tagged (natural protein)
stimulation of T. brucei AdoMetDC activity by T. cruzi prozyme, no putrescine [3]: 60 fold

NCCCCN [putrescine]
activation of AdoMet decarboxylation, 14CO2 trapping [4]: the T. cruzi AdoMetDC enzyme was stimulated by putrescine
